Entries after “also recorded” stand apart in the source; their conditions may differ.
B1: GST-Siah2: GST fusion of Seven in absentia homolog 2, RING E3 ligase (protein)
chain: MSRPSSTGPSANKPCSKQPPPQPQHTPSPAAPPAAATISAAGPGSSAVPAAAAVISGPGGGGGAGPVSPQHHELTSLFECPVCFDYVLPPILQCQAGHLVCNQCRQKLSCCPTCRGALTPSIRNLAMEKVASAVLFPCKYATTGCSLTLHHTEKPEHEDICEYRPYSCPCPGASCKWQGSLEAVMSHLMHAHKSITTLQGEDIVFLATDINLPGAVDWVMMQSCFGHHFMLVLEKQEKYEGHQQFFAIVLLIGTRKQAENFAYRLELNGNRRRLTWEATPRSIHDGVAAAIMNSDCLVFDTAIAHLFADNGNLGINVTISTCCP
modifications: left off: a dimerising Fc or GST
notes: GST fusion of Seven in absentia homolog 2, RING E3 ligase
B2: GST-Nedd4: GST fusion of Nedd4, HECT E3 ligase (protein)
chain: MATCAVEVFGLLEDEENSRIVRVRVIAGIGLAKKDILGASDPYVRVTLYDPMNGVLTSVQTKTIKKSLNPKWNEEILFRVHPQQHRLLFEVFDENRLTRDDFLGQVDVPLYPLPTENPRLERPYTFKDFVLHPRSHKSRVKGYLRLKMTYLPKTSGSEDDNAEQAEELEPGWVVLDQPDAACHLQQQQEPSPLPPGWEERQDILGRTYYVNHESRRTQWKRPTPQDNLTDAENGNIQLQAQRAFTTRRQISEETESVDNRESSENWEIIREDEATMYSNQAFPSPPPSSNLDVPTHLAEELNARLTIFGNSAVSQPASSSNHSSRRGSLQAYTFEEQPTLPVLLPTSSGLPPGWEEKQDERGRSYYVDHNSRTTTWTKPTVQATVETSQLTSSQSSAGPQSQASTSDSGQQVTQPSEIEQGFLPKGWEVRHAPNGRPFFIDHNTKTTTWEDPRLKIPAHLRGKTSLDTSNDLGPLPPGWEERTHTDGRIFYINHNIKRTQWEDPRLENVAITGPAVPYSRDYKRKYEFFRRKLKKQNDIPNKFEMKLRRATVLEDSYRRIMGVKRADFLKARLWIEFDGEKGLDYGGVAREWFFLISKEMFNPYYGLFEYSATDNYTLQINPNSGLCNEDHLSYFKFIGRVAGMAVYHGKLLDGFFIRPFYKMMLHKPITLHDMESVDSEYYNSLRWILENDPTELDLRFIIDEELFGQTHQHELKNGGSEIVVTNKNKKEYIYLVIQWRFVNRIQKQMAAFKEGFFELIPQDLIKIFDENELELLMCGLGDVDVNDWREHTKYKNGYSANHQVIQWFWKAVLMMDSEKRIRLLQFVTGTSRVPMNGFAELYGSNGPQSFTVEQWGTPEKLPRAHTCFNRLDLPPYESFEELWDKLQMAIENTQGFDGVD
modifications: left off: a dimerising Fc or GST
notes: GST fusion of Nedd4, HECT E3 ligase
B3: GST-Murf1: GST fusion of Muscle-specific RING finger protein 1, RING E3 ligase (protein)
chain: MDYKSSLIQDGNPMENLEKQLICPICLEMFTKPVVILPCQHNLCRKCANDIFQAANPYWTSRGSSVSMSGGRFRCPTCRHEVIMDRHGVYGLQRNLLVENIIDIYKQECSSRPLQKGSHPMCKEHEDEKINIYCLTCEVPTCSMCKVFGIHKACEVAPLQSVFQGQKTELNNCISMLVAGNDRVQTIITQLEDSRRVTKENSHQVKEELSQKFDTLYAILDEKKSELLQRITQEQEKKLSFIEALIQQYQEQLDKSTKLVETAIQSLDEPGGATFLLTAKQLIKSIVEASKGCQLGKTEQGFENMDFFTLDLEHIADALRAIDFGTDEEEEEFIEEEDQEEEESTEGKEEGHQ
modifications: left off: a dimerising Fc or GST
notes: GST fusion of Muscle-specific RING finger protein 1, RING E3 ligase
B4: His-CHIP: His-tagged carboxyl terminus of Hsp70-interacting protein, U-box E3 ligase (protein)
chain: MKGKEEKEGGARLGAGGGSPEKSPSAQELKEQGNRLFVGRKYPEAAACYGRAITRNPLVAVYYTNRALCYLKMQQHEQALADCRRALELDGQSVKAHFFLGQCQLEMESYDEAIANLQRAYSLAKEQRLNFGDDIPSALRIAKKKRWNSIEERRIHQESELHSYLSRLIAAERERELEECQRNHEGDEDDSHVRAQQACIEAKHDKYMADMDELFSQVDEKRKKRDIPDYLCGKISFELMREPCITPSGITYDRKDIEEHLQRVGHFDPVTRSPLTQEQLIPNLAMKEVIDAFISENGWVEDY
modifications: left off: small tags and cut ends
B5: GST-parkin: GST fusion of parkin, RING class E3 ligase (protein)
chain: MIVFVRFNSSHGFPVEVDSDTSIFQLKEVVAKRQGVPADQLRVIFAGKELRNDWTVQNCDLDQQSIVHIVQRPWRKGQEMNATGGDDPRNAAGGCEREPQSLTRVDLSSSVLPGDSVGLAVILHTDSRKDSPPAGSPAGRSIYNSFYVYCKGPCQRVQPGKLRVQCSTCRQATLTLTQGPSCWDDVLIPNRMSGECQSPHCPGTSAEFFFKCGAHPTSDKETSVALHLIATNSRNITCITCTDVRSPVLVFQCNSRHVICLDCFHLYCVTRLNDRQFVHDPQLGYSLPCVAGCPNSLIKELHHFRILGEEQYNRYQQYGAEECVLQMGGVLCPRPGCGAGLLPEPDQRKVTCEGGNGLGCGFAFCRECKEAYHEGECSAVFEASGTTTQAYRVDERAAEQARWEAASKETIKKTTKPCPRCHVPVEKNGGCMHMKCPQPQCRLEWCWNCGCEWNRVCMGDHWFDV
modifications: left off: a dimerising Fc or GST
notes: GST fusion of parkin, RING class E3 ligase

Key:
S5a [1] = test: thermal denaturation of E3 ligases (S5a ubiquitination after pre-incubation); assay type: biochemical; conditions: for Thermal Denaturation Temperature (temperature at which approximately 50% of activity was lost): E3 pre-incubated 90 minutes at 4° C. to 60° C., then S5a ubiquitination 60 minutes at 37° C.
Description: To characterize the thermal denaturation properties E3 ligases, the E3 was pre-incubated for 90 minutes at a temperature ranging from 4° C. to 60° C. (Mdm2 and Nedd4 at 4, 37, 45, 50 and 60° C.; Murf1 at 4, 37, 50, 60, 70 and 80° C.; E6AP at 37, 39, 41, 43, and 45° C. At 90 minutes, a pre-mix was made containing 50 nM E1, 1 mM Mg-ATP, 5 μM UbcH7 (UbcH5a for Mdm2 and Murf1), 200 nM ubiquitin and 200 nM S5a. The pre-mix was added to 0.2 mg/mL of E3 ligase and incubated at 37° C. for 60 minutes. Samples were run on SDS-PAGE and assessed by Western blotting using monoclonal antibody to S5a (BioMol).

S5a [2] = test: ubiquitination assay of E3 ligases using S5a as the substrate; assay type: biochemical; conditions: 0.2 mg/mL E3, 200 nM S5a, 1 hour at 37° C., Western blot
Description: For each E3 ligase, a ubiquitination assay using S5a as the substrate was carried out. Briefly, the ubiquitination reaction contained 50 nM E1, 1 mM MgATP, 5 μM UbcH7, 0.2 mg/mL E3, 200 nM ubiquitin, and 200 nM S5a. Ubiquitination reactions were incubated for 1 hour at 37° C. and samples were taken at time 0, 30′ and 60′. Samples were run on SDS-PAGE, transferred to immobilon and Western blotted using monoclonal antibody to S5a (BioMol).

Molecule | Thermal Denaturation Temperature (temperature at which approximately 50% of activity was lost) (S5a [1]) [°C] | Thermal Denaturation Temperature (temperature at which approximately 50% of activity was lost) (S5a [1]; listed as E6AP) [°C] | Ubiquitinated S5a? (S5a [2]) | Ubiquitinated S5a? (S5a [2]; listed as Siah2) | S5a ubiquitination activity after thermal pre-incubation (S5a [1]; E3 pre-incubated 90 minutes at 4, 37, 45, 50 and 60° C.) | Thermal Denaturation Temperature (temperature at which approximately 50% of activity was lost) (S5a [1]; listed as Murf1) [°C] | Ubiquitinated S5a? (S5a [2]; listed as CHIP)
GST-E6AP: GST fusion of Human papillomavirus E6-associated protein, HECT E3 ligase | 41 | 41 | Yes | – | – | – | –
B1 | – | – | Yes (low) | very low activity | – | – | –
B2 | 37 | – | Yes | – | did not show any activity when pre-incubated at temperatures higher than 4 °C; also recorded: lose activity following pre-incubation at any temperature except 4 °C | – | –
B3 | 60 | – | Yes | – | – | 60 | –
B4 | – | – | Yes | – | – | – | reasonable activity
B5 | 49 | – | Yes | – | – | – | –
